In IntAct's records for PubMed 17360477:

B1: Receptor-type tyrosine-protein phosphatase T (Homo sapiens), O14522-1 (parent)
chain: MASLAALALSLLLRLQLPPLPGARAQSAAGGCSFDEHYSNCGYSVALGTNGFTWEQINTWEKPMLDQAVPTGSFMMVNSSGRASGQKAHLLLPTLKENDTHCIDFHYYFSSRDRSSPGALNVYVKVNGGPQGNPVWNVSGVVTEGWVKAELAISTFWPHFYQVIFESVSLKGHPGYIAVDEVRVLAHPCRKAPHFLRLQNVEVNVGQNATFQCIAGGKWSQHDKLWLQQWNGRDTALMVTRVVNHRRFSATVSVADTAQRSVSKYRCVIRSDGGSGVSNYAELIVKEPPTPIAPPELLAVGATYLWIKPNANSIIGDGPIILKEVEYRTTTGTWAETHIVDSPNYKLWHLDPDVEYEIRVLLTRPGEGGTGPPGPPLTTRTKCADPVHGPQNVEIVDIRARQLTLQWEPFGYAVTRCHSYNLTVQYQYVFNQQQYEAEEVIQTSSHYTLRGLRPFMTIRLRLLLSNPEGRMESEELVVQTEEDVPGAVPLESIQGGPFEEKIYIQWKPPNETNGVITLYEINYKAVGSLDPSADLSSQRGKVFKLRNETHHLFVGLYPGTTYSFTIKASTAKGFGPPVTTRIATKISAPSMPEYDTDTPLNETDTTITVMLKPAQSRGAPVSVYQLVVKEERLQKSRRAADIIECFSVPVSYRNASSLDSLHYFAAELKPANLPVTQPFTVGDNKTYNGYWNPPLSPLKSYSIYFQALSKANGETKINCVRLATKAPMGSAQVTPGTPLCLLTTGASTQNSNTVEPEKQVDNTVKMAGVIAGLLMFIIILLGVMLTIKRRRNAYSYSYYLSQRKLAKKQKETQSGAQREMGPVASADKPTTKLSASRNDEGFSSSSQDVNGFTDGSRGELSQPTLTIQTHPYRTCDPVEMSYPRDQFQPAIRVADLLQHITQMKRGQGYGFKEEYEALPEGQTASWDTAKEDENRNKNRYGNIISYDHSRVRLLVLDGDPHSDYINANYIDGYHRPRHYIATQGPMQETVKDFWRMIWQENSASIVMVTNLVEVGRVKCVRYWPDDTEVYGDIKVTLIETEPLAEYVIRTFTVQKKGYHEIRELRLFHFTSWPDHGVPCYATGLLGFVRQVKFLNPPEAGPIVVHCSAGAGRTGCFIAIDTMLDMAENEGVVDIFNCVRELRAQRVNLVQTEEQYVFVHDAILEACLCGNTAIPVCEFRSLYYNISRLDPQTNSSQIKDEFQTLNIVTPRVRPEDCSIGLLPRNHDKNRSMDVLPLDRCLPFLISVDGESSNYINAALMDSHKQPAAFVVTQHPLPNTVADFWRLVFDYNCSSVVMLNEMDTAQFCMQYWPEKTSGCYGPIQVEFVSADIDEDIIHRIFRICNMARPQDGYRIVQHLQYIGWPAYRDTPPSKRSLLKVVRRLEKWQEQYDGREGRTVVHCLNGGGRSGTFCAICSVCEMIQQQNIIDVFHIVKTLRNNKSNMVETLEQYKFVYEVALEYLSSF

Variants of: B1
Conditions: with stat3_human STAT3, P40763
stat3_human STAT3, P40763, sequence (P40763 whole entry): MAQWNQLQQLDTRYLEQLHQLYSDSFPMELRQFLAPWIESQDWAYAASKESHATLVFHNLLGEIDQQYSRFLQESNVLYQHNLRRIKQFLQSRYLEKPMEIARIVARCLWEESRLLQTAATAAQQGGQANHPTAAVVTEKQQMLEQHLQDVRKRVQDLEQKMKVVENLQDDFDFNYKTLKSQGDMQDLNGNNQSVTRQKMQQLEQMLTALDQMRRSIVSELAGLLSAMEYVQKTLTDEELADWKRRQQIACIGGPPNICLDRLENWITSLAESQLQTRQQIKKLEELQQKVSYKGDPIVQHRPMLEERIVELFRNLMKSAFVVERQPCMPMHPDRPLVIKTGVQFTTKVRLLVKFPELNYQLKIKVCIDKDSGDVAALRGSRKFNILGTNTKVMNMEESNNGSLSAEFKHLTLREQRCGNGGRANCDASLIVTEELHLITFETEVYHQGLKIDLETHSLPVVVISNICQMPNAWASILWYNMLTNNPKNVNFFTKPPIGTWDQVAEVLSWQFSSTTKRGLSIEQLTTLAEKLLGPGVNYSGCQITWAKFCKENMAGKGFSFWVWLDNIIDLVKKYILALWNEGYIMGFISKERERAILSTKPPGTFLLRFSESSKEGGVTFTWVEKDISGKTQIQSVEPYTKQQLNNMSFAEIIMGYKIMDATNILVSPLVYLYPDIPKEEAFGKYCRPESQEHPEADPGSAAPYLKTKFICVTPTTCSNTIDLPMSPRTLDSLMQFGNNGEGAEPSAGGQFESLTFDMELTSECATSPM

effect of a mutation on the interaction	Variant
increasing interaction strength	D1074A
increasing interaction strength	D1074A;C1106S
